Laboratory results: paper PMC8683085, “Serine ADP-ribosylation marks nucleosomes for ALC1-dependent chromatin remodeling” (eLife, 2021)

Target: unmodified nucleosome (UniProt P68431)

- ALC1 nucleosome remodeling rate constant (REA assay): < 0.0003 min⁻¹
Substance: ALC1 (full-length, 6xHis-1xFLAG-ALC1) (from UniProt Q86WJ1 1-897) (enzyme)
